Test results as given in patent US20220031841A1 (ABSCI, published 2022).

What was measured:
Assay in all cases: HuProt protein array, F635 z-score
[1] = molecular target: T1, O-linked N-acetylglucosamine (GlcNAc) transferase (OGT) (human, UniProt O15294 2-1046)
T1 construct: The array carries full-length recombinant human proteins expressed in S. cerevisiae; also called Human OGT
T1 sequence: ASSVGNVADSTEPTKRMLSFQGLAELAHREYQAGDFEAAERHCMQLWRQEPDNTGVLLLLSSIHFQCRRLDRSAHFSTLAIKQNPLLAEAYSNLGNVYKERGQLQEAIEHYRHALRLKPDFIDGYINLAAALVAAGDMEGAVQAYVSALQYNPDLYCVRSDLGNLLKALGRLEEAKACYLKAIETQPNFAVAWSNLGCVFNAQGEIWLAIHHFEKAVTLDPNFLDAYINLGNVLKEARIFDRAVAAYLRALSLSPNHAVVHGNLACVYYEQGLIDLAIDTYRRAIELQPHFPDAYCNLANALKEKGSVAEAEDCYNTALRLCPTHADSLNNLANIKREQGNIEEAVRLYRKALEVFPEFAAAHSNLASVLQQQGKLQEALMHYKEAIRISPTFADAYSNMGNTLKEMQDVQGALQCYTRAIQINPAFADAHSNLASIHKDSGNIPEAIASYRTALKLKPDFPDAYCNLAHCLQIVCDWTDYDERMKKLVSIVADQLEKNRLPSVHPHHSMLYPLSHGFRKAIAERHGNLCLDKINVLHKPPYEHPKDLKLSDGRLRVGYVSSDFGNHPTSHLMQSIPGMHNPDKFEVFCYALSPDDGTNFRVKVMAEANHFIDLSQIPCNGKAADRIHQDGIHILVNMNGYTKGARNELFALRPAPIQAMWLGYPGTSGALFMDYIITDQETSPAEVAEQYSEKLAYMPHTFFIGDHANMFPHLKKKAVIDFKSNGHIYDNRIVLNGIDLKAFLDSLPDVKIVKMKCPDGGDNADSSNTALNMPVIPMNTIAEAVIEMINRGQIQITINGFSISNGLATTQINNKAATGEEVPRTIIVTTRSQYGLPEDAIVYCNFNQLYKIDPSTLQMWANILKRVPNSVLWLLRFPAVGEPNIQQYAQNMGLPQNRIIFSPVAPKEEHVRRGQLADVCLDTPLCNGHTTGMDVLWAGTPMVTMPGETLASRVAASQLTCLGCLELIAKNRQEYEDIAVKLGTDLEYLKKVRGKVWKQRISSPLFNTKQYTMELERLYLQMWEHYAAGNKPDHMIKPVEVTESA
Description: (§1) Large scale protein arrays are versatile and sensitive platforms for antibody specificity evaluation. They can be used for the evaluation of protein binding or affinity reagents that are widely employed in research and clinical applications. The microarray used in our target identification experiment provides the largest number of unique, full-length, individually purified human proteins on a single microscope slide. This allows thousands of interactions to be profiled in a high-throughput manner. The hill-length recombinant proteins are expressed in the yeast S. cerevisiae, purified, and printed on glass slides in duplicate along with a set of control proteins (GST, BSA, histones, IgG, etc.). Such microarray is not restricted to a particular type of surface coating, although the default is glass coated with ultra-thin nitrocellulose film for the non-covalent, yet irreversible, capture of active proteins to the surface. Fourteen Protein arrays were used for the antibody cross-reactivity assay of the samples. The antibodies were probed at […] on the arrays and incubated at room temperature for 1 hour. After probing, the arrays were washed according to the protocol and probed with Alexa-647-anti-human IgG […] specific secondary antibodies under conditions optimized for signal detection. The antibody-antigen binding score was calculated for each protein represented on the array and expressed as z-scores.
(§2) Antibody samples are probed on native HuProt arrays at 1 μg/ml and incubated at room temperature for 1 hour. After probing, the arrays are washed according to the standard protocols and probed with Alexa-647-anti-human IgG Fc gamma specific secondary antibodies under conditions optimized for signal detection.
(§3) Z score is the average Z score of the duplicate spots of a given protein (each protein is printed in duplicate on a HuProt™ array). The Z score of each spot on a given array is calculated according to the equation: […]

[2] = molecular target: T2, Chromobox protein homolog 1 (CBX1) (human, UniProt P83916 1-185)
T2 construct: The array carries full-length recombinant human proteins expressed in S. cerevisiae; also called Human Chromobox protein homolog 1
Description: as §1, §2, §3

[3] = molecular target: T3, Alpha-taxilin (TXLNA) also known as interleukin-14A (human, UniProt P40222 1-546)
T3 construct: The array carries full-length recombinant human proteins expressed in S. cerevisiae; also called IL-14A; TXLNA/IL-14A
Description: as §1, §2, §3

[4] = molecular target: T4, Inorganic pyrophosphatase (PPA1) (human, UniProt Q15181 2-289)
T4 construct: The array carries full-length recombinant human proteins expressed in S. cerevisiae; also called Human PPA1
T4 sequence: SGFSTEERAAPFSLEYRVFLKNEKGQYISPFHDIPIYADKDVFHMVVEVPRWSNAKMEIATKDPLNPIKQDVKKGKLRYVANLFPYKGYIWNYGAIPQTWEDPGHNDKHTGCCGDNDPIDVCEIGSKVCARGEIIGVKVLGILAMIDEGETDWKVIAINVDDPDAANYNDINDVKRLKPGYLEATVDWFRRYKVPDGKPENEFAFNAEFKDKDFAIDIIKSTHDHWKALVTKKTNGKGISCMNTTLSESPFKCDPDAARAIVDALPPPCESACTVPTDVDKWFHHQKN
Description: as §1, §2, §3

[5] = molecular target: T5, Cancer/testis antigen 1 (CTAG1A) (human, UniProt P78358 1-180)
T5 construct: The array carries full-length recombinant human proteins expressed in S. cerevisiae; also called NY-ESO-1; Cancer/Testis Antigen 1A
Description: as §1, §2, §3

[6] = molecular target: T6, Chromobox protein homolog 5 (CBX5) (human, UniProt P45973 1-191)
T6 construct: The array carries full-length recombinant human proteins expressed in S. cerevisiae; also called Human Chromobox protein homolog 5
Description: as §1, §2, §3

[7] = molecular target: T7, Melanoma-associated antigen 3 (MAGE-A3) (human, UniProt P43357 1-314)
T7 construct: The array carries full-length recombinant human proteins expressed in S. cerevisiae; also called Human MAGE-A3
Description: as §1, §2, §3

[8] = molecular target: T8, Src homology 2 (SH2) domain containing inositol polyphosphate 5-phosphatase 1 (SHIP1) (human, UniProt Q92835 1-1189)
T8 construct: The array carries full-length recombinant human proteins expressed in S. cerevisiae, purified and printed on glass slides; also called INPP5D; INPP5D/SHIP1
T8 sequence: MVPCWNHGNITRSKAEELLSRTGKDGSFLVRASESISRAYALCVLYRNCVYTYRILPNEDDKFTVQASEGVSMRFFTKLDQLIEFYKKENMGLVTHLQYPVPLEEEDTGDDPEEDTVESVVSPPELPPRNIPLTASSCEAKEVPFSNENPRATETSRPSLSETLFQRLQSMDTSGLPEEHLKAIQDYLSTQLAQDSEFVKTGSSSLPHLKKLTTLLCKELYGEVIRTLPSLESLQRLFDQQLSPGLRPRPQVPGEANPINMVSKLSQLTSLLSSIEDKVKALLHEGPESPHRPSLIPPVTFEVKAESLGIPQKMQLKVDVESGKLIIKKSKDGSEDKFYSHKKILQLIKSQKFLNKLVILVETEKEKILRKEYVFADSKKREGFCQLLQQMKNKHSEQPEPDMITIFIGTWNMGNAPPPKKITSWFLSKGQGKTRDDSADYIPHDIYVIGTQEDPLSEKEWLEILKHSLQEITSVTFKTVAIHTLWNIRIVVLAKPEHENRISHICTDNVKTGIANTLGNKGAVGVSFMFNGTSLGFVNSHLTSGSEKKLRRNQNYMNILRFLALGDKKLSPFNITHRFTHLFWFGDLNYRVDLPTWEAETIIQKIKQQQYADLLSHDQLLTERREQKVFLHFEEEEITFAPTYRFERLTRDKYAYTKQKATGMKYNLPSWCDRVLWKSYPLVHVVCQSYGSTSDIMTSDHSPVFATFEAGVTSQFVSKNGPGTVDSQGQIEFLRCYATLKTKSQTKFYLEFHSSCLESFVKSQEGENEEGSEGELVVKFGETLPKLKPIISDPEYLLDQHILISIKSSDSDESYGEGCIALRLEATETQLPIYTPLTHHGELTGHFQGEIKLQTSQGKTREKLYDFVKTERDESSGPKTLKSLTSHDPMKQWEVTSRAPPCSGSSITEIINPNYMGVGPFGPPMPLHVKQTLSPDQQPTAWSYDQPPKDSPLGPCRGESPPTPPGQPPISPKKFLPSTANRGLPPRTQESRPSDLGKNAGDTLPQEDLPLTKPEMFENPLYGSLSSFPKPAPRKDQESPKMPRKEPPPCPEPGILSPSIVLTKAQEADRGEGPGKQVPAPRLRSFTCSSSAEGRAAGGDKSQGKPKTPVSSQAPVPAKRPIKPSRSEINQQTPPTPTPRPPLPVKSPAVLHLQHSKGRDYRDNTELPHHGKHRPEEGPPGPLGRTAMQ
Description: as §1, §2, §3

Measured: binding result

T7 sequence (P43357 whole entry): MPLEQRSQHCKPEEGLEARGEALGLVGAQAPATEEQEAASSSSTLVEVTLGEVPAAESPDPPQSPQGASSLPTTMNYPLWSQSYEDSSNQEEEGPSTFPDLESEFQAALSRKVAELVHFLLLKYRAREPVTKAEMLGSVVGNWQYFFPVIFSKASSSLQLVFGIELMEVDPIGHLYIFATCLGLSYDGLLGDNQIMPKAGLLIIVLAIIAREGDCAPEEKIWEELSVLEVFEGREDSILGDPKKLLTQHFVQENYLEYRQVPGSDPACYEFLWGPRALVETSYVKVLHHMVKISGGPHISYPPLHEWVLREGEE
T6 sequence (P45973 whole entry): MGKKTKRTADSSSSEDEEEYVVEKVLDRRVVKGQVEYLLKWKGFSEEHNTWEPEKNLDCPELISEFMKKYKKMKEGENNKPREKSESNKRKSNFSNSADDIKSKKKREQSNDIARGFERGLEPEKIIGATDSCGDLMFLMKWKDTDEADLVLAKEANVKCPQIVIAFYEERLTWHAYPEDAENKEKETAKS
T5 sequence (P78358 whole entry): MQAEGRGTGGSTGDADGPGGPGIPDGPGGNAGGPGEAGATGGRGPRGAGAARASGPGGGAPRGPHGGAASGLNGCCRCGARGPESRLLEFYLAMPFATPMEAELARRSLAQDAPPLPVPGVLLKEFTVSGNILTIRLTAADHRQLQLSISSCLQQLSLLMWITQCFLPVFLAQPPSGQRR
T3 sequence (P40222 whole entry): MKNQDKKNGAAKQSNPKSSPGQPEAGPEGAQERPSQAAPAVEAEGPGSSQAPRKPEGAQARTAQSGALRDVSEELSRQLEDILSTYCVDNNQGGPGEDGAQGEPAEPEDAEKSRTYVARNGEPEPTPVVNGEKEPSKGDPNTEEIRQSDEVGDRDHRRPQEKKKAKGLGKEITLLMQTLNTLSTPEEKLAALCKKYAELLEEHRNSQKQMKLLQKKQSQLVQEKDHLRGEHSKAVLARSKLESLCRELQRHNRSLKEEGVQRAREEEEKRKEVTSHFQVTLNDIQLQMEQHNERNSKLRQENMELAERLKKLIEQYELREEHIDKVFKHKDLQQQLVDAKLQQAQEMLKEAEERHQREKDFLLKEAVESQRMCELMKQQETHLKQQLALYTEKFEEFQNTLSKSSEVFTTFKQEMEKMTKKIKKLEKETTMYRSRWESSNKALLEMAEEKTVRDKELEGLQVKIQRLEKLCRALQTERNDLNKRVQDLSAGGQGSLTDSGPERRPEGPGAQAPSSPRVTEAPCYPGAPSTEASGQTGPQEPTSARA
T2 sequence (P83916 whole entry): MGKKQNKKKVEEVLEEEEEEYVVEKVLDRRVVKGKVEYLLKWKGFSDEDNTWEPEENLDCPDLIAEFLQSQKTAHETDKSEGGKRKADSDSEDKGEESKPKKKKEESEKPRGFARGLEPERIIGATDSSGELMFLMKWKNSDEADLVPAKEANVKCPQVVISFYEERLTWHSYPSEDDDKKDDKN

B1: TMEL1001 (antibody, V domains shown)
VH: EVQLVESGGGLVKPGGSLRLSCAASGFTFRSYSMNWVRQAPGKGLEWVSSISSSGNYIYYADSVKGRFTLSRDNAKNSLYLQMNSLRAEDTAVYYCARGGGTSWSHYWGQGTLVTVSS
VL: QFMLTQPHSVSESPGKTVTISCTRSSGSIASNYVQWYQQRPGSAPTTVIYEDNERPSGVPDRFSGSIDSSSNSASLTISGLKTEDEADYYCQSYDSNNRWVFGGGTKLTVLG
notes: It was detected with an anti-human IgG Fc gamma secondary antibody
no binding (tested: 1 µg/ml): [1] | [2] | [3] | [4] | [5] | [6] | [7]

B2: TMEL1003 (antibody, V domains shown)
VH: AVQLVQSGAEVKKPGESLRISCKGSGYSFTSYWISWVRQMPGKGLEWMGRIDPSDSYTNYSPSFQGHVTISADKSISTAYLQWSSLKTSDTAMYYCARPLQTYSIASVGHWGQGTLVTVSS
VL: ASALTQPASVSGSPGQSITISCTGTSSDVGSYNLVSWYQQHPGKAPKLMIYEGSKRPSGVSNRFSGSKSGNTASLTISGLQAEDEADYYCCSYAGSSTFAVFGGGTKLTVLG
notes: the heavy entry continues into what looks like a non-IgG (IgM-like) CH1; It was detected with an anti-human IgG Fc gamma secondary antibody
no binding (tested: 1 µg/ml): [1] | [4] | [5] | [8] | [7]

B3: TMEL1006 (antibody, V domains shown)
VH: VVQLVESGGGLVQPGGSLRLSCAASGLTFRNYAMSWVRQAPGKGLEWVSAISGSGGRTHYADSVKGRFTISRDNSKNTLFLQMNSLRAEDTAVYYCAKEIGKYGTPTLFQHWGQGTLVTVSS
VL: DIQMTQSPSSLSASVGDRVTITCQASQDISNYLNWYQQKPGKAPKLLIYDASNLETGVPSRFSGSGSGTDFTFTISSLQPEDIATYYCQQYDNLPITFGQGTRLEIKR
notes: as for B1
no binding (tested: 1 µg/ml): [1] | [2] | [3] | [4] | [8] | [6]
